B1: Protein Niban 1 (Homo sapiens), Q9BZQ8 (parent)
chain: MGGSASSQLDEGKCAYIRGKTEAAIKNFSPYYSRQYSVAFCNHVRTEVEQQRDLTSQFLKTKPPLAPGTILYEAELSQFSEDIKKWKERYVVVKNDYAVESYENKEAYQRGAAPKCRILPAGGKVLTSEDEYNLLSDRHFPDPLASSEKENTQPFVVLPKEFPVYLWQPFFRHGYFCFHEAADQKRFSALLSDCVRHLNHDYMKQMTFEAQAFLEAVQFFRQEKGHYGSWEMITGDEIQILSNLVMEELLPTLQTDLLPKMKGKKNDRKRTWLGLLEEAYTLVQHQVSEGLSALKEECRALTKGLEGTIRSDMDQIVNSKNYLIGKIKAMVAQPAEKSCLESVQPFLASILEELMGPVSSGFSEVRVLFEKEVNEVSQNFQTTKDSVQLKEHLDRLMNLPLHSVKMEPCYTKVNLLHERLQDLKSRFRFPHIDLVVQRTQNYMQELMENAVFTFEQLLSPHLQGEASKTAVAIEKVKLRVLKQYDYDSSTIRKKIFQEALVQITLPTVQKALASTCKPELQKYEQFIFADHTNMIHVENVYEEILHQILLDETLKVIKEAAILKKHNLFEDNMALPSESVSSLTDLKPPTGSNQASPARRASAILPGVLGSETLSNEVFQESEEEKQPEVPSSLAKGESLSLPGPSPPPDGTEQVIISRVDDPVVNPVATEDTAGLPGTCSSELEFGGTLEDEEPAQEEPEPITASGSLKALRKLLTASVEVPVDSAPVMEEDTNGESHVPQENEEEEEKEPSQAAAIHPDNCEESEVSEREAQPPCPEAHGEELGGFPEVGSPASPPASGGLTEEPLGPMEGELPGEACTLTAHEGRGGKCTEEGDASQQEGCTLGSDPICLSESQVSEEQEEMGGQSSAAQATASVNAEEIKVARIHECQWVVEDAPNPDVLLSHKDDVKEGEGGQESFPELPSEE

Variants of: B1
Details: with npm_human NPM1, P06748
Chain of npm_human NPM1, P06748 (P06748 whole entry): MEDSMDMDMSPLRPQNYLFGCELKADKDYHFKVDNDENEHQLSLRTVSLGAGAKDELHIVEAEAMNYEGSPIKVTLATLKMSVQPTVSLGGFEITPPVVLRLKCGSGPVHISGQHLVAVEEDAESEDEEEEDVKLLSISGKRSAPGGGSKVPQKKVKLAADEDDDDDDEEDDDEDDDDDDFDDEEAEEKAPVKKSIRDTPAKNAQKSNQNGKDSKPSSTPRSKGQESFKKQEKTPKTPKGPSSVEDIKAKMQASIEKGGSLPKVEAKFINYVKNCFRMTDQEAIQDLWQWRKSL

Row | Variant | effect of a mutation on the interaction
1 | S602A | decreasing interaction

Variants of: B1
Details: with npm_human NPM1, P06748
Remark: another data set of the same source

Row | Variant | effect of a mutation on the interaction
2 | S602D | increasing interaction

Reference: IntAct's records for PubMed 22510990
